This is an account of results in article PMC4484435 (2015).

The assay deals with transforming growth factor beta 1 (UniProt P01137 279-390). Kind of assay: SPR. Background: Surface plasmon resonance follows binding to a sensor surface in real time, without labels.
transforming growth factor beta 1, sequence (P01137 279-390): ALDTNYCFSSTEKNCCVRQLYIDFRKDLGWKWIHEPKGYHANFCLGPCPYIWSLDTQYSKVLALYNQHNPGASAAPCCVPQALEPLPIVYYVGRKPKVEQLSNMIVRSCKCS

B1: Leucine-rich α2-glycoprotein (natural protein)
chain: LKECLILQSAEGSTVSCHGPTEFPSSLPADTVHLSVEFSNLTQLPAAALQGCPGLRELHLSSNRLQALSPELLAPVPRLRALDLTRNALRSLPPGLFSTSANLSTLVLRENQLREVSAQWLQGLDALGHLDLAENQLSSLPSGLLASLGALHTLDLGYNLLESLPEGLLRGPRRLQRLHLEGNRLQRLEDSLLAPQPFLRVLFLNDNQLVGVATGSFQGLQHLDMLDLSNNSLSSTPPGLWAFLGRPTRDMQDGFDISHNPWICDKNLADLCRWLVANRNKMFSQNDTRCAGPEAMKGQRLLDVAELGSL
The koff is a measure of how fast the partners let go of each other. A high value points to a short-lived complex. The molecule B1 yielded a koff of 0.0589 s⁻¹.
